Assay results: the supplement of paper PMC10724198
± gives the standard deviation of the averaged measurements.

test system: Saccharomyces cerevisiae; assay: protein stability index of tFT-peptide fusion (C-terminal peptide) (PSI (0-1 scale)); higher = more stable (slower turnover); conditions: genetic background: wild type; temperature: 30 C
Protocol: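 Multiplexed protein stability (MPS) profiling in S. cerevisiae. Random 12-aa peptides (tFT-X12 library) are fused to the C-terminus of a sfGFP-mCherry tandem fluorescent timer, after mCherry and a GGGS linker. Cells are FACS-sorted into 8 mCherry/sfGFP bins and deep-sequenced. The protein stability index (PSI) is the read-weighted bin average, scaled from 0 (unstable) to 1 (stable). Only peptides with >10 reads are reported; cells were grown at 30 °C in SC-His with glucose.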
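Also: PSI is a weighted mean of sequencing reads over stability bins, variants kept only with over 10 reads, mCherry proximal and sfGFP distal, peptide attached via GGGS linker.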

Sequence	protein stability index
ATILILHTSPQF	0.655 ± 0.041
AVAIGQGLSAGV	0.686 ± 0.053
AVCGPHLYPRVI	0.643 ± 0.022
AVCSLLVYAPDR	0.652 ± 0.059
AVGLCGARSLGG	0.634 ± 0.048
AVGPAGSQATIC	0.706 ± 0.1
AVGPLTGPRPPV	0.699 ± 0.073
AVGSAGRGRLGI	0.673 ± 0.0078
AVGVRSSGRVSI	0.7246 ± 0.0034
AVKRNDALGIQF	0.718 ± 0.046
AVLFDQLGGRWR	0.614 ± 0.061
AVLTDKKGRVRS	0.703 ± 0.036
AVLTLRAPPSAL	0.708 ± 0.025
AVPRPSPPPPPL	0.674 ± 0.0086
AVQESVSHSLVL	0.723 ± 0.0012
AVRLALAPQVGA	0.617 ± 0.018
AVRPGEAGCAGL	0.664 ± 0.12
AVRSILYRVATR	0.729 ± 0.06
AVVVDWLAQVLH	0.757 ± 0.068
AVYRPFPFRSGI	0.699 ± 0.015
AWCGGVVGVAWL	0.6661 ± 0.0062
AWCLLTRWDLLL	0.609 ± 0.0014
AYGVGQERWVRE	0.725 ± 0.061
AYKCLPAKGADS	0.695 ± 0.047
AYLCLLPPFFTV	0.674 ± 0.037

Sequence	protein stability index
AYQFLCFSGMIT	0.761 ± 0.27
AYSMMNLYNFAL	0.67 ± 0.014
AYVSLRASLLSS	0.633 ± 0.063
CAGRVWVGLCGV	0.685 ± 0.094
CARYFFLHPSLG	0.67961 ± 1.3e-05
CASPSPPPAPVL	0.68 ± 0.022
CCGLYLGAGCAY	0.674 ± 0.017
CCLFLACANFFV	0.551 ± 0.031
CCLSFMSPFFCF	0.75 ± 0.026
CCVSFFISFGGR	0.554 ± 0.03
CCVYFLSMFFVL	0.575 ± 0.026
CDCIAFISRSFS	0.675 ± 0.039
CDGPFRLVLGGG	0.672 ± 0.018
CDRVIGSRGVTY	0.688 ± 0.0071
CEAWLTDEGLRD	0.742 ± 0.016
CERHWADRNTSV	0.7445 ± 0.0064
CFCWLFLVGRAD	0.5734 ± 0.0024
CFCYSLSINLNL	0.522 ± 0.0072
CFGFAGVGSLSC	0.752 ± 0.13
CFGFSLKFGTGK	0.668 ± 0.033
CFKETLLKGSRQ	0.718 ± 0.034
CFLPACPSPGDS	0.737 ± 0.075
CFLPGFYFLFSI	0.561 ± 0.033
CFPLPRPLPYME	0.654 ± 0.12
CFSCLWVPLLPS	0.649 ± 0.008

Sequence	protein stability index
CFSMGKRGLRGR	0.686 ± 0.026
CFSSLRFCLPSV	0.686 ± 0.00021
CFVSFFWRCFFG	0.515 ± 0.045
CFWTSFVWPGCA	0.684 ± 0.00095
CGAGIYTRCTGR	0.6613 ± 0.001
CGALRLPSSREV	0.604 ± 0.021
CGGKTEKRKKYT	0.6062 ± 0.0034
CGGRKTPPPPRH	0.688 ± 0.054
CGGRWGTYYRRV	0.7 ± 0.042
CGGSCLQDGGWA	0.787 ± 0.1
CGHMSTSNANLS	0.687 ± 0.051
CGLGGLYLVLHD	0.671 ± 0.067
CGLRVVGVVGAP	0.712 ± 0.062
CGLSYSAVDLGV	0.684 ± 0.01
CGPRPDSIDVGF	0.608 ± 0.052
CGRFCLQGEYIV	0.705 ± 0.12
CGRPRGVEPGGA	0.754 ± 0.12
CGSDRINACVRI	0.727 ± 0.032
CGSVEVVVVRGS	0.587 ± 0.054
CGTPDLGLLRAT	0.74 ± 0.054
CGVSPPHANLVS	0.569 ± 0.036
CGVVSSSVDCIN	0.699 ± 0.028
CHYSSFISFVVV	0.594 ± 0.024
CICFLDGCSFVN	0.755 ± 0.14
CIFCCGWCLDRL	0.719 ± 0.058

Sequence	protein stability index
CIFFSPFSFLLP	0.654 ± 0.035
CILPFFFFVSPD	0.652 ± 0.084
CIRGFQVRGYFK	0.791 ± 0.19
CIVDFLGISSGI	0.659 ± 0.057
CKKGCTEVKNAV	0.719 ± 0.084
CLAPSIPPPLSS	0.702 ± 0.036
CLFPPTARHSFP	0.778 ± 0.036
CLFPPYDYFFPF	0.734 ± 0.091
CLGPDWWARRSI	0.772 ± 0.064
CLGRLRLMSSCR	0.688 ± 0.044
CLLAAMTFYTVR	0.711 ± 0.029
CLPSLPPFPASL	0.738 ± 0.064
CLQRPVSAGMVT	0.676 ± 0.027
CLSGVLDFLLFL	0.648 ± 0.0085
CLSILRNVVPII	0.723 ± 0.08
CLSLVCGFPVVY	0.605 ± 0.0099
CLTHLLPPAFPC	0.694 ± 0.018
CMEYFMHFVKGD	0.701 ± 0.06
CMFRCCLRSLVL	0.639 ± 0.0064
CMGASRTRILTR	0.681 ± 0.046
CNCGGRGCGWMR	0.651 ± 0.025
CNDAYKSKLARL	0.696 ± 0.034
CNGVGRLPGTPG	0.685 ± 0.0086
